The target of the test is GLP-1 receptor (GLP-1R) on CHO DG44 2-A4-2-A8 cells. As to the kind of experiment: cell-based or functional assay.

In the case of “GLP-1 (7-37) (Val^8-GLP-1 (7-37)) (from UniProt P01275 27-57) (peptide)”, the EC50 (CRE-luciferase reporter, test NO. 1) amounted to 0.75 nM; the EC50 (CRE-luciferase reporter, test NO. 2) is 0.368 nM; the EC50 (CRE-luciferase reporter, test NO. 3) came to 0.364 nM.

The values above are taken from US20200109182A1, “GLP-1 ANALOG FUSION PROTEIN AND PREPARATION METHOD AND APPLICATION THEREOF” (JIANGSU T-MAB BIOPHARMA CO., LTD, priority 2013, published 2020).
